Measured values from the Immune Epitope Database (IEDB).

Legend:
HLA-B*46:01 [1] = experiment: IEDB peptide-MHC binding, purified MHC/competitive/fluorescence; filed as Kd, often an IC50 or EC50 that approximates it; ≥ and ≤ were set here for values at or beyond the usual limits of such assays
HLA-B*57:01 [2] = experiment: IEDB peptide-MHC binding, purified MHC/direct/fluorescence; filed as Kd, often an IC50 or EC50 that approximates it; ≥ and ≤ were set here for values at or beyond the usual limits of such assays; settings: source organism: Mycobacterium tuberculosis variant bovis
HLA-C*12:03 = experiment: as above
HLA-B*58:01 = experiment: as above
HLA-A*02:01 [3] = experiment: IEDB peptide-MHC binding, purified MHC/competitive/radioactivity; ≥ and ≤ were set here for values at or beyond the usual limits of such assays
HLA-B*57:01 [4] = experiment: IEDB peptide-MHC binding, purified MHC/competitive/fluorescence; filed as Kd, often an IC50 or EC50 that approximates it; ≥ and ≤ were set here for values at or beyond the usual limits of such assays
HLA-B*15:17 = experiment: as above
HLA-A*26:02 = experiment: as above; settings: source organism: Variola virus
HLA-A*01:01 = experiment: as above; settings: source organism: Variola virus
HLA-A*68:02 = experiment: IEDB peptide-MHC binding, purified MHC/direct/fluorescence; filed as Kd, often an IC50 or EC50 that approximates it; ≥ and ≤ were set here for values at or beyond the usual limits of such assays
HLA-A*69:01 = experiment: as above; settings: source organism: Camelpox virus CMS
HLA-B*07:02 [5] = experiment: as above
HLA-B*48:01 = experiment: as above; settings: source organism: Camelpox virus CMS
HLA-B*27:05 = experiment: as above; settings: source organism: Camelpox virus CMS
HLA-A*02:01 [6] = experiment: as above; settings: source organism: Camelpox virus CMS
HLA-B*18:01 [7] = experiment: as above; settings: source organism: Camelpox virus CMS
HLA-B*39:01 [8] = experiment: as above; settings: source organism: Camelpox virus CMS
HLA-B*40:01 = experiment: as above; settings: source organism: Camelpox virus CMS
HLA-B*15:01 [9] = experiment: as above; settings: source organism: Camelpox virus CMS
HLA-B*46:01 [10] = experiment: as above; settings: source organism: Camelpox virus CMS
HLA-A*02:01 [11] = experiment: IEDB peptide-MHC binding, purified MHC/competitive/fluorescence; filed as Kd, often an IC50 or EC50 that approximates it; ≥ and ≤ were set here for values at or beyond the usual limits of such assays
HLA-A*02:11 [12] = experiment: as above; settings: source organism: Canarypox virus
HLA-C*15:02 = experiment: IEDB peptide-MHC binding, purified MHC/direct/fluorescence; filed as Kd, often an IC50 or EC50 that approximates it; ≥ and ≤ were set here for values at or beyond the usual limits of such assays; settings: source organism: Canarypox virus
HLA-C*03:03 = experiment: as above; settings: source organism: Canarypox virus
HLA-B*15:03 = experiment: IEDB peptide-MHC binding, purified MHC/competitive/radioactivity; filed as Kd, often an IC50 or EC50 that approximates it; ≥ and ≤ were set here for values at or beyond the usual limits of such assays; settings: source organism: Vaccinia virus WR
HLA-A*30:01 = experiment: as above; settings: source organism: Vaccinia virus WR
HLA-B*08:01 [13] = experiment: as above; settings: source organism: Vaccinia virus WR
HLA-B*15:01 [14] = experiment: as above; settings: source organism: Vaccinia virus WR
HLA-A*32:01 = experiment: as above; settings: source organism: Vaccinia virus WR
HLA-B*07:02 [15] = experiment: IEDB peptide-MHC binding, purified MHC/competitive/fluorescence; ≥ and ≤ were set here for values at or beyond the usual limits of such assays; settings: source organism: Zaire ebolavirus
HLA-A*02:01 [16] = experiment: as above; settings: source organism: Zaire ebolavirus
HLA-B*08:01 [17] = experiment: as above; settings: source organism: Zaire ebolavirus
HLA-B*51:01 = experiment: IEDB peptide-MHC binding, purified MHC/competitive/fluorescence; filed as Kd, often an IC50 or EC50 that approximates it; ≥ and ≤ were set here for values at or beyond the usual limits of such assays; settings: source organism: Zaire ebolavirus
HLA-B*18:01 [18] = experiment: as above; settings: source organism: Zaire ebolavirus
HLA-A*26:01 = experiment: as above; settings: source organism: Zaire ebolavirus
HLA-B*27:03 = experiment: as above; settings: source organism: Zaire ebolavirus
HLA-B*39:01 [19] = experiment: as above; settings: source organism: Zaire ebolavirus
HLA-B*15:01 [20] = experiment: as above; settings: source organism: Zaire ebolavirus
HLA-A*03:01 = experiment: IEDB peptide-MHC binding, purified MHC/direct/fluorescence; filed as Kd, often an IC50 or EC50 that approximates it; ≥ and ≤ were set here for values at or beyond the usual limits of such assays; settings: source organism: Zaire ebolavirus
HLA-A*29:02 = experiment: as above; settings: source organism: Zaire ebolavirus
HLA-A*24:03 = experiment: as above; settings: source organism: Zaire ebolavirus
HLA-A*02:19 = experiment: as above; settings: source organism: Zaire ebolavirus
HLA-A*23:01 = experiment: as above; settings: source organism: Zaire ebolavirus
HLA-A*02:16 = experiment: as above; settings: source organism: Zaire ebolavirus
HLA-A*02:03 = experiment: as above; settings: source organism: Zaire ebolavirus
HLA-A*02:11 [21] = experiment: as above; settings: source organism: Zaire ebolavirus
HLA-A*02:12 = experiment: as above; settings: source organism: Zaire ebolavirus
[22] = source organism: Mycobacterium tuberculosis variant bovis BCG str. Pasteur 1173P2
[23] = source organism: Camelpox virus CMS
[24] = source organism: Canarypox virus
[25] = source organism: Zaire ebolavirus

Work on VAFYCAGRF yielded a Kd (HLA-B*46:01 [1]; [22]) of 0.748 µM, a Kd (HLA-B*57:01 [2]) of 0.451 µM and a Kd (HLA-C*12:03; [22]) of 0.058 µM. For the same sequence, the Kd (HLA-B*58:01; source organism: Mycobacterium tuberculosis variant bovis) was 0.112 µM.

CQWGRLWQL showed an IC50 (HLA-A*02:01 [3]; source organism: Homo sapiens) of 1.43 µM.

For YLDSGIHSGA, the IC50 (HLA-A*02:01 [3]; source organism: Homo sapiens) was 0.0835 µM.

For LLDVPTAAV, the IC50 (HLA-A*02:01 [3]; source organism: Homo sapiens) was 0.01 µM.

SSDDIPPRW gave a Kd (HLA-B*57:01 [4]; source organism: Variola virus) of 1.48 µM, a Kd (HLA-B*15:17; source organism: Variola virus) of at least 20 µM and a Kd (HLA-A*26:02) of at least 20 µM. It also gave a Kd (HLA-A*01:01) of at least 20 µM, a Kd (HLA-A*68:02; [23]) of at least 20 µM and a Kd (HLA-A*69:01) of at least 20 µM. For the same sequence, the Kd (HLA-B*07:02 [5]; [23]) was at least 20 µM, the Kd (HLA-B*48:01) was at least 20 µM and the Kd (HLA-B*27:05) was at least 20 µM. The Kd (HLA-A*02:01 [6]) was at least 20 µM, the Kd (HLA-B*18:01 [7]) was at least 20 µM and the Kd (HLA-B*58:01; [23]) was 0.0279 µM. The Kd (HLA-B*39:01 [8]) was at least 20 µM, the Kd (HLA-B*40:01) was at least 20 µM and the Kd (HLA-B*15:01 [9]) was at least 20 µM. For the same sequence, the Kd (HLA-B*46:01 [10]) was at least 20 µM.

YIIPCILIL gave a Kd (HLA-A*02:01 [11]; [24]) of 0.0594 µM, a Kd (HLA-A*02:11 [12]) of 0.24 µM and a Kd (HLA-C*15:02) of at least 20 µM. It also gave a Kd (HLA-C*12:03; [24]) of 0.327 µM and a Kd (HLA-C*03:03) of 0.229 µM.

HAATNFREI gave a Kd (HLA-C*12:03; source organism: Angomonas deanei) of 0.025 µM.

With NLIYRNLHL the IC50 (HLA-A*02:01 [3]; source organism: Rhinovirus A) was 0.2 µM.

FIFLKKNEL was tested, and the Kd (HLA-A*02:01 [11]; source organism: Variola virus) was 3.02 µM, the Kd (HLA-C*12:03; source organism: Variola virus) was 1.45 µM and the Kd (HLA-B*15:03) was 18.5 µM. For the same sequence, the Kd (HLA-A*30:01) was 0.0439 µM, the Kd (HLA-B*08:01 [13]) was 0.0966 µM and the Kd (HLA-B*15:01 [14]) was 4.77 µM. It also gave a Kd (HLA-A*32:01) of 12.8 µM.

For HPLARTAKV, the IC50 (HLA-B*07:02 [15]) was 3.11 µM, the IC50 (HLA-A*02:01 [16]) was at least 113 µM and the IC50 (HLA-B*08:01 [17]) was 54.5 µM. For the same sequence, the Kd (HLA-B*51:01) was 0.201 µM, the Kd (HLA-A*02:01 [11]; [25]) was at least 20 µM and the Kd (HLA-B*57:01 [4]; [25]) was at least 20 µM. It also gave a Kd (HLA-B*18:01 [18]) of at least 20 µM, a Kd (HLA-B*15:17; [25]) of at least 20 µM and a Kd (HLA-A*26:01) of at least 20 µM. The Kd (HLA-B*27:03) was at least 20 µM, the Kd (HLA-B*39:01 [19]) was at least 20 µM and the Kd (HLA-B*15:01 [20]) was at least 20 µM. For the same sequence, the Kd (HLA-B*46:01 [1]; [25]) was at least 20 µM, the Kd (HLA-A*68:02; [25]) was at least 20 µM and the Kd (HLA-A*03:01) was at least 20 µM. The Kd (HLA-B*07:02 [5]; [25]) was 0.0459 µM, the Kd (HLA-A*29:02) was at least 20 µM and the Kd (HLA-A*24:03) was at least 20 µM. For the same sequence, the Kd (HLA-A*02:19) was at least 20 µM, the Kd (HLA-A*23:01) was at least 20 µM and the Kd (HLA-A*02:16) was at least 20 µM. It also gave a Kd (HLA-A*02:03) of at least 20 µM, a Kd (HLA-A*02:11 [21]) of at least 20 µM and a Kd (HLA-A*02:12) of at least 20 µM.
